Measured values as given in patent publication US20190085039A1 (OSAKA UNIVERSITY, published 2019).

Target: the molecule itself
Experiment: size exclusion gel filtration chromatography (Superdex 200 10/30, 20 mM HEPES pH 7.4, 150 mM NaCl); no self-association, elutes as a monomer
Procedure: The solvent is 20 mM HEPES solution of pH 7.4 containing 150 mM NaCl. The larger the molecular weight/molecular volume, the faster the flow in the column. Therefore, peaks appear on the left side in the figure. The spectra indicated with dotted lines in FIG. 1 show the absorptions of 10 μM DsRed (tetramer), tdTomato (dimer), and mCherry (monomer) in order from the left. […] Since the peak position of mfGFP is almost the same as that of mCherry, it can be said that

B1: monomeric green-yellow fluorescent protein mfGFP (other)
chain: MVSKGEEASGRALFQYPMTSKIELNGEINGKKFKVAGEGFTPSSGRFNMHAYCTTGDLPMSWVVIASPLQYGFHMFAHYPEDITHFFQECFPGSYTLDRTLRMEGDGTLTTHHEYSLEDGCVTSKTTLNASGFDPKGATMTKSFVKQLPNEVKITPHGPNGIRLTSTVLYLKEDGTIQIGTQDCIVTPVGGRKVTQPKAHFLHTQIIQKKDPNDTRDHIVQTELAVAGNLWHGMDELYK
notes: It was purified with an N-terminal polyhistidine tag; not shown: N-terminal polyhistidine tag from the bacterial expression vector pRSETB
B1: no binding (tested: 10 µM).
